Measurements published in publication doi:10.1101/2021.05.25.445566 (bioRxiv, 2021).

T1: MlaF, nucleotide binding domain of the MlaFEDB ABC transporter (UniProt P63386 1-269)
T1 sequence: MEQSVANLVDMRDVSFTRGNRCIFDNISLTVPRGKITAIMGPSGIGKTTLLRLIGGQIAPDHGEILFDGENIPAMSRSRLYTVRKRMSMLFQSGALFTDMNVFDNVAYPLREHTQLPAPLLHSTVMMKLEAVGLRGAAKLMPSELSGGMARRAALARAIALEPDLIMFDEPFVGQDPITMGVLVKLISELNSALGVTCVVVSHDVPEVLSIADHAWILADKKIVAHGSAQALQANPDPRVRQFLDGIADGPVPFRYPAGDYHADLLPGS

T2: MlaF K47A (Walker A variant) (UniProt P63386 1-269, K47A)
T2 sequence: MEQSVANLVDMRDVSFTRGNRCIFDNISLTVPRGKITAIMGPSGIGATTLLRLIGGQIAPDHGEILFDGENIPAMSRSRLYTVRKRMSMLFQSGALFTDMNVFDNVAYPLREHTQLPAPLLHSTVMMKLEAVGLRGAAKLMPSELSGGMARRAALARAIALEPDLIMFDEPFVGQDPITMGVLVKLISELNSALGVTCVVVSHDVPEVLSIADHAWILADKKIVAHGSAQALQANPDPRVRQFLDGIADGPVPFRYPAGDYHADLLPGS

B1: MlaE, His-tagged (His-E), permease of the MlaFEDB ABC transporter (natural protein)
chain: MLLNALASLGHKGIKTLRTFGRAGLMLFNALVGKPEFRKHAPLLVRQLYNVGVLSMLIIVVSGVFIGMVLGLQGYLVLTTYSAETSLGMLVALSLLRELGPVVAALLFAGRAGSALTAEIGLMRATEQLSSMEMMAVDPLRRVISPRFWAGVISLPLLTVIFVAVGIWGGSLVGVSWKGIDSGFFWSAMQNAVDWRMDLVNCLIKSVVFAITVTWISLFNGYDAIPTSAGISRATTRTVVHSSLAVLGLDFVLTALMFGN

Columns and labels:
[1] = molecular target: T1, MlaF, nucleotide binding domain of the …; assay: SEC
[2] = molecular target: T2, MlaF K47A (Walker A variant); assay: SEC
[3] = molecular target: B1; assay: SEC
[4] = molecular target: the molecule itself; assay: SDS-PAGE of SDS-resistant oligomers

Binder | binding result [1] | binding result [2] | binding result [3] | stoichiometry N [4]
B1 | binds | binds | – | –
MlaD, substrate-binding MCE-domain protein of the MlaFEDB complex (natural protein) MQTKKNEIWVGIFLLAALLAALFVCLKAANVTSIRTEPTYTLYATFDNIGGLKARSPVSIGGVVVGRVADITLDPKTYLPRVTLEIEQRYNHIPDTSSLSIRTSGLLGEQYLALNVGFEDPELGTAILKDGDTIQDTKSAMVLEDLIGQFLYGSKGDDNKNSGDAPAAAPGNNETTEPVGTTK | – | – | binds | –
MlaD L106N/L107N (natural protein) MQTKKNEIWVGIFLLAALLAALFVCLKAANVTSIRTEPTYTLYATFDNIGGLKARSPVSIGGVVVGRVADITLDPKTYLPRVTLEIEQRYNHIPDTSSLSIRTSGNNGEQYLALNVGFEDPELGTAILKDGDTIQDTKSAMVLEDLIGQFLYGSKGDDNKNSGDAPAAAPGNNETTEPVGTTK | – | – | binds | 6
MlaB, cytoplasmic STAS-domain protein of the MlaFEDB complex (natural protein) MSESLSWMQTGDTLALSGELDQDVLLPLWEMREEAVKGITCIDLSRVSRVDTGGLALLLHLIDLAKKQGNNVTLQGVNDKVYTLAKLYNLPADVLPR | – | – | binds | –
MlaB T52A (natural protein) MSESLSWMQTGDTLALSGELDQDVLLPLWEMREEAVKGITCIDLSRVSRVDAGGLALLLHLIDLAKKQGNNVTLQGVNDKVYTLAKLYNLPADVLPR | – | – | binds | –
MlaD Δ141-183 (natural protein) MQTKKNEIWVGIFLLAALLAALFVCLKAANVTSIRTEPTYTLYATFDNIGGLKARSPVSIGGVVVGRVADITLDPKTYLPRVTLEIEQRYNHIPDTSSLSIRTSGLLGEQYLALNVGFEDPELGTAILKDGDTIQDTKSA | – | – | binds | 6
